Data as given in patent publication US20250312499A1, “KISSPEPTIN RECEPTOR (KISS1R) TARGETED THERAPEUTICS AND USES THEREOF” (priority 2024, published 2025).
Numbered stars: 1 amine (or outer) side, 2 acyl side, 3 side chain; on linkers, the order of the positions; unused ones are H or OH. Square brackets hold non-standard residues; d marks the D form. * marks the point of attachment. X2 = 4‑amino‑1‑((3-fluoro-4-methylbenzyl)glycyl)piperidine‑4‑carboxylic acid, Cc1ccc(CN(CC(=O)N2CCC(N[*:1])(C(=O)[*:2])CC2)[*:3])cc1F; X10 = 3‑(2-(2-(3-(4-iodophenyl)propanamido)ethoxy)ethoxy)propanoyl, O=C(CCc1ccc(I)cc1)NCCOCCOCCC(=O)*; X6 = 3‑(2-(2-(3-(p-tolyl)propanamido)ethoxy)ethoxy)propanoyl, Cc1ccc(CCC(=O)NCCOCCOCCC(=O)*)cc1; DOTA = O=C(O)CN1CCN(CC(=O)O)CCN(CC(=O)*)CCN(CC(=O)O)CC1; Butanoyl(4-(4-I-phenyl)) = O=C(CCCc1ccc(I)cc1)*; Api(1-amidino) = N=C(N)N1CCC(N)(C(=O)O)CC1; d(γGlu) = O=C(O)[C@@H](CCC(=O)[*:2])N[*:1]; Phe(4-CN) = N#Cc1ccc(C[C@H](N)C(=O)O)cc1; d2Nal = N[C@H](Cc1ccc2ccccc2c1)C(=O)O; Palmitoyl = CCCCCCCCCCCCCCCC(=O)*; Cha = N[C@@H](CC1CCCCC1)C(=O)O; Lauroyl = CCCCCCCCCCCC(=O)*; Octanoyl = CCCCCCCC(=O)*; Ahx = NCCCCCC(=O)O; azaGly = NNC(=O)O

B1: Compound 336 (peptide)
peptide: {DOTA-Ahx}-[dK](Butanoyl(4-(4-I-phenyl)))[dY][d2Nal]NTF[azaGly]L[Api(1-amidino)]W-NH2
SMILES: CC(C)C[C@H](NC(=O)NNC(=O)[C@H](Cc1ccccc1)NC(=O)[C@@H](NC(=O)[C@H](CC(N)=O)NC(=O)[C@@H](Cc1ccc2ccccc2c1)NC(=O)[C@@H](Cc1ccc(O)cc1)NC(=O)[C@@H](CCCCNC(=O)CCCc1ccc(I)cc1)NC(=O)CCCCCNC(=O)CN1CCN(CC(=O)O)CCN(CC(=O)O)CCN(CC(=O)O)CC1)[C@@H](C)O)C(=O)NC1(C(=O)N[C@@H](Cc2c[nH]c3ccccc23)C(N)=O)CCN(C(=N)N)CC1
B2: Compound 322 (peptide)
peptide: X6-[dY]K(DOTA)NTF[azaGly]L[Api(1-amidino)]F-NH2
SMILES: Cc1ccc(CCC(=O)NCCOCCOCCC(=O)N[C@H](Cc2ccc(O)cc2)C(=O)N[C@@H](CCCCNC(=O)CN2CCN(CC(=O)O)CCN(CC(=O)O)CCN(CC(=O)O)CC2)C(=O)N[C@@H](CC(N)=O)C(=O)N[C@H](C(=O)N[C@@H](Cc2ccccc2)C(=O)NNC(=O)N[C@@H](CC(C)C)C(=O)NC2(C(=O)N[C@@H](Cc3ccccc3)C(N)=O)CCN(C(=N)N)CC2)[C@@H](C)O)cc1
B3: Compound 331 (peptide)
peptide: Lauroyl-[dY]K(DOTA)NTF[azaGly]L[Api(1-amidino)]Y-NH2
SMILES: CCCCCCCCCCCC(=O)N[C@H](Cc1ccc(O)cc1)C(=O)N[C@@H](CCCCNC(=O)CN1CCN(CC(=O)O)CCN(CC(=O)O)CCN(CC(=O)O)CC1)C(=O)N[C@@H](CC(N)=O)C(=O)N[C@H](C(=O)N[C@@H](Cc1ccccc1)C(=O)NNC(=O)N[C@@H](CC(C)C)C(=O)NC1(C(=O)N[C@@H](Cc2ccc(O)cc2)C(N)=O)CCN(C(=N)N)CC1)[C@@H](C)O
B4: Compound 302 (peptide)
peptide: {DOTA}-[d2Nal]NTF[azaGly]L[Api(1-amidino)]F-NH2
SMILES: CC(C)C[C@H](NC(=O)NNC(=O)[C@H](Cc1ccccc1)NC(=O)[C@@H](NC(=O)[C@H](CC(N)=O)NC(=O)[C@@H](Cc1ccc2ccccc2c1)NC(=O)CN1CCN(CC(=O)O)CCN(CC(=O)O)CCN(CC(=O)O)CC1)[C@@H](C)O)C(=O)NC1(C(=O)N[C@@H](Cc2ccccc2)C(N)=O)CCN(C(=N)N)CC1
B5: Compound 327 (peptide)
peptide: X10-[dY]K(DOTA)NT[Cha][azaGly]L[Api(1-amidino)]W-NH2
SMILES: CC(C)C[C@H](NC(=O)NNC(=O)[C@H](CC1CCCCC1)NC(=O)[C@@H](NC(=O)[C@H](CC(N)=O)NC(=O)[C@H](CCCCNC(=O)CN1CCN(CC(=O)O)CCN(CC(=O)O)CCN(CC(=O)O)CC1)NC(=O)[C@@H](Cc1ccc(O)cc1)NC(=O)CCOCCOCCNC(=O)CCc1ccc(I)cc1)[C@@H](C)O)C(=O)NC1(C(=O)N[C@@H](Cc2c[nH]c3ccccc23)C(N)=O)CCN(C(=N)N)CC1
B6: Compound 334 (peptide)
peptide: X10-[dY][dK](DOTA)NTF[azaGly]L[Api(1-amidino)]W-NH2
SMILES: CC(C)C[C@H](NC(=O)NNC(=O)[C@H](Cc1ccccc1)NC(=O)[C@@H](NC(=O)[C@H](CC(N)=O)NC(=O)[C@@H](CCCCNC(=O)CN1CCN(CC(=O)O)CCN(CC(=O)O)CCN(CC(=O)O)CC1)NC(=O)[C@@H](Cc1ccc(O)cc1)NC(=O)CCOCCOCCNC(=O)CCc1ccc(I)cc1)[C@@H](C)O)C(=O)NC1(C(=O)N[C@@H](Cc2c[nH]c3ccccc23)C(N)=O)CCN(C(=N)N)CC1
B7: Compound 324 (peptide)
peptide: X10-[dY]K(DOTA)NTF[azaGly]L[Api(1-amidino)]Y-NH2
SMILES: CC(C)C[C@H](NC(=O)NNC(=O)[C@H](Cc1ccccc1)NC(=O)[C@@H](NC(=O)[C@H](CC(N)=O)NC(=O)[C@H](CCCCNC(=O)CN1CCN(CC(=O)O)CCN(CC(=O)O)CCN(CC(=O)O)CC1)NC(=O)[C@@H](Cc1ccc(O)cc1)NC(=O)CCOCCOCCNC(=O)CCc1ccc(I)cc1)[C@@H](C)O)C(=O)NC1(C(=O)N[C@@H](Cc2ccc(O)cc2)C(N)=O)CCN(C(=N)N)CC1
B8: Compound 332 (peptide)
peptide: Octanoyl-[dY]K(DOTA)NTF[azaGly]L[Api(1-amidino)]Y-NH2
SMILES: CCCCCCCC(=O)N[C@H](Cc1ccc(O)cc1)C(=O)N[C@@H](CCCCNC(=O)CN1CCN(CC(=O)O)CCN(CC(=O)O)CCN(CC(=O)O)CC1)C(=O)N[C@@H](CC(N)=O)C(=O)N[C@H](C(=O)N[C@@H](Cc1ccccc1)C(=O)NNC(=O)N[C@@H](CC(C)C)C(=O)NC1(C(=O)N[C@@H](Cc2ccc(O)cc2)C(N)=O)CCN(C(=N)N)CC1)[C@@H](C)O
B9: Compound 330 (peptide)
peptide: Palmitoyl-[dY]K(DOTA)NTF[azaGly]L[Api(1-amidino)]Y-NH2
SMILES: CCCCCCCCCCCCCCCC(=O)N[C@H](Cc1ccc(O)cc1)C(=O)N[C@@H](CCCCNC(=O)CN1CCN(CC(=O)O)CCN(CC(=O)O)CCN(CC(=O)O)CC1)C(=O)N[C@@H](CC(N)=O)C(=O)N[C@H](C(=O)N[C@@H](Cc1ccccc1)C(=O)NNC(=O)N[C@@H](CC(C)C)C(=O)NC1(C(=O)N[C@@H](Cc2ccc(O)cc2)C(N)=O)CCN(C(=N)N)CC1)[C@@H](C)O
B10: Compound 333 (peptide)
peptide: X6-[dY]K(DOTA)NTF[azaGly]L[Api(1-amidino)][Phe(4-CN)]-NH2
SMILES: Cc1ccc(CCC(=O)NCCOCCOCCC(=O)N[C@H](Cc2ccc(O)cc2)C(=O)N[C@@H](CCCCNC(=O)CN2CCN(CC(=O)O)CCN(CC(=O)O)CCN(CC(=O)O)CC2)C(=O)N[C@@H](CC(N)=O)C(=O)N[C@H](C(=O)N[C@@H](Cc2ccccc2)C(=O)NNC(=O)N[C@@H](CC(C)C)C(=O)NC2(C(=O)N[C@@H](Cc3ccc(C#N)cc3)C(N)=O)CCN(C(=N)N)CC2)[C@@H](C)O)cc1
B11: Compound 326 (peptide)
peptide: X6-[dY]K(DOTA)NT[Cha][azaGly]L[Api(1-amidino)]W-NH2
SMILES: Cc1ccc(CCC(=O)NCCOCCOCCC(=O)N[C@H](Cc2ccc(O)cc2)C(=O)N[C@@H](CCCCNC(=O)CN2CCN(CC(=O)O)CCN(CC(=O)O)CCN(CC(=O)O)CC2)C(=O)N[C@@H](CC(N)=O)C(=O)N[C@H](C(=O)N[C@@H](CC2CCCCC2)C(=O)NNC(=O)N[C@@H](CC(C)C)C(=O)NC2(C(=O)N[C@@H](Cc3c[nH]c4ccccc34)C(N)=O)CCN(C(=N)N)CC2)[C@@H](C)O)cc1
B12: Compound 323 (peptide)
peptide: X10-[dY]K(DOTA)NTF[azaGly]L[Api(1-amidino)]F-NH2
SMILES: CC(C)C[C@H](NC(=O)NNC(=O)[C@H](Cc1ccccc1)NC(=O)[C@@H](NC(=O)[C@H](CC(N)=O)NC(=O)[C@H](CCCCNC(=O)CN1CCN(CC(=O)O)CCN(CC(=O)O)CCN(CC(=O)O)CC1)NC(=O)[C@@H](Cc1ccc(O)cc1)NC(=O)CCOCCOCCNC(=O)CCc1ccc(I)cc1)[C@@H](C)O)C(=O)NC1(C(=O)N[C@@H](Cc2ccccc2)C(N)=O)CCN(C(=N)N)CC1
B13: Compound 328 (peptide)
peptide: Palmitoyl-[dY]K(DOTA)NTF[azaGly]L[Api(1-amidino)]W-NH2
SMILES: CCCCCCCCCCCCCCCC(=O)N[C@H](Cc1ccc(O)cc1)C(=O)N[C@@H](CCCCNC(=O)CN1CCN(CC(=O)O)CCN(CC(=O)O)CCN(CC(=O)O)CC1)C(=O)N[C@@H](CC(N)=O)C(=O)N[C@H](C(=O)N[C@@H](Cc1ccccc1)C(=O)NNC(=O)N[C@@H](CC(C)C)C(=O)NC1(C(=O)N[C@@H](Cc2c[nH]c3ccccc23)C(N)=O)CCN(C(=N)N)CC1)[C@@H](C)O
B14: Compound 325 (peptide)
peptide: X10-[dY]K(DOTA)NTF[azaGly]L[Api(1-amidino)][Phe(4-CN)]-NH2
SMILES: CC(C)C[C@H](NC(=O)NNC(=O)[C@H](Cc1ccccc1)NC(=O)[C@@H](NC(=O)[C@H](CC(N)=O)NC(=O)[C@H](CCCCNC(=O)CN1CCN(CC(=O)O)CCN(CC(=O)O)CCN(CC(=O)O)CC1)NC(=O)[C@@H](Cc1ccc(O)cc1)NC(=O)CCOCCOCCNC(=O)CCc1ccc(I)cc1)[C@@H](C)O)C(=O)NC1(C(=O)N[C@@H](Cc2ccc(C#N)cc2)C(N)=O)CCN(C(=N)N)CC1
B15: Compound 305 (peptide)
peptide: {DOTA}-GY[Ahx]F[azaGly]L[X2]W-NH2
SMILES: Cc1ccc(CNCC(=O)N2CCC(NC(=O)[C@H](CC(C)C)NC(=O)NNC(=O)[C@H](Cc3ccccc3)NC(=O)CCCCCNC(=O)[C@H](Cc3ccc(O)cc3)NC(=O)CNC(=O)CN3CCN(CC(=O)O)CCN(CC(=O)O)CCN(CC(=O)O)CC3)(C(=O)N[C@@H](Cc3c[nH]c4ccccc34)C(N)=O)CC2)cc1F
B16: Compound 329 (peptide)
peptide: Lauroyl-[dY]K(DOTA)NTF[azaGly]L[Api(1-amidino)]W-NH2
SMILES: CCCCCCCCCCCC(=O)N[C@H](Cc1ccc(O)cc1)C(=O)N[C@@H](CCCCNC(=O)CN1CCN(CC(=O)O)CCN(CC(=O)O)CCN(CC(=O)O)CC1)C(=O)N[C@@H](CC(N)=O)C(=O)N[C@H](C(=O)N[C@@H](Cc1ccccc1)C(=O)NNC(=O)N[C@@H](CC(C)C)C(=O)NC1(C(=O)N[C@@H](Cc2c[nH]c3ccccc23)C(N)=O)CCN(C(=N)N)CC1)[C@@H](C)O

target: human kisspeptin receptor (KISS1R) (human), Q969F8; assay: radioligand competition, hKISS1R membranes; legend: A is <10 nM
Sequence (Q969F8 whole entry): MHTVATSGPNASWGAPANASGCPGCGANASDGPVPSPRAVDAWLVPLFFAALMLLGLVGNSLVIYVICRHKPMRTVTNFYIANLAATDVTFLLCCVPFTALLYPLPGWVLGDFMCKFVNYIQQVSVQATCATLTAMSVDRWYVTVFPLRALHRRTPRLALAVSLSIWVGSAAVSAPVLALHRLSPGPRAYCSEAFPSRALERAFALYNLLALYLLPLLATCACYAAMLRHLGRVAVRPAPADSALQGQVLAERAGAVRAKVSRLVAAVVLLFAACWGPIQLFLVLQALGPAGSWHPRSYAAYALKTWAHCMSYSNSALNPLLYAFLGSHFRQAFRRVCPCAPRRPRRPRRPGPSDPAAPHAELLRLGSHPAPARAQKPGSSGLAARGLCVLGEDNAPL

| Ki | Binder |
| --- | --- |
| < 10 nM | B1 |
| < 10 nM | B2 |
| < 10 nM | B3 |
| < 10 nM | B4 |
| < 10 nM | B5 |
| < 10 nM | B6 |
| < 10 nM | B7 |
| < 10 nM | B8 |
| < 10 nM | B9 |
| < 10 nM | B10 |
| < 10 nM | {3‑(4-iodophenyl)propanoyl}-[dY]K(DOTA)NTF[azaGly]L[Api(1-amidino)]W-NH2 [Compound 321] |
| < 10 nM | B11 |
| < 10 nM | {3‑(4-iodophenyl)propanoyl}-[d(γGlu)][dY]K(DOTA)NTF[azaGly]L[Api(1-amidino)]W-NH2 [Compound 320] |
| < 10 nM | B12 |
| < 10 nM | B13 |
| < 10 nM | B14 |
| < 10 nM | B15 |
| < 10 nM | {DOTA-Ahx}-[dK](4‑(p-tolyl)butanoyl)[dY][d2Nal]NTF[azaGly]L[Api(1-amidino)]W-NH2 [Compound 335] |
| < 10 nM | B16 |
